Measured values from patent US20130236458A1 (AbbVie / Abbott, published 2013).
Residue numbers refer to the chain shown, from its start. One block for each binder: values may come before it.

Assays:
Recombinant Human IL-13 [1] = target: T1, Recombinant Human IL-13 (human, UniProt P35225 35-146, limits assumed); experiment: cell-based or functional assay
Recombinant Human IL-17 [2] = target: T2, Recombinant Human IL-17 (human, UniProt Q16552 20-155, limits assumed); experiment: cell-based or functional assay
T2 sequence (looked up): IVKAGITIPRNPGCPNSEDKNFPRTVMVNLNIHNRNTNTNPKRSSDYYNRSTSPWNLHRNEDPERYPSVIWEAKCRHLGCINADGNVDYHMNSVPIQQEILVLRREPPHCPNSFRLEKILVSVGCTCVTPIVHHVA

Recombinant Human IL-13 [3] = target: T1, Recombinant Human IL-13; experiment: SPR (Biacore)
Protocol: (§1) The BIACORE assay (Biacore, Inc, Piscataway, N.J.) determined the affinity of antibodies or DVD-Ig with kinetic measurements of on-rate and off-rate constants. Binding of antibodies or DVD-Ig proteins to a target antigen (for example, a purified recombinant target antigen) was determined by surface plasmon resonance-based measurements with a Biacore®1000 or 3000 instrument (Biacore® AB, Uppsala, Sweden) using running HBS-EP (10 mM HEPES [pH 7.4], 150 mM NaCl, 3 mM EDTA, and 0.005% surfactant P20) at 25° C. All chemicals were obtained from Biacore® AB (Uppsala, Sweden) or otherwise from a different source as described in the text. For example, approximately 5000 RU of goat anti-mouse IgG, (Fcγ), fragment specific polyclonal antibody (Pierce Biotechnology Inc, Rockford, Ill.) diluted in 10 mM sodium acetate (pH 4.5) was directly immobilized across a CM5 research grade biosensor chip using a standard amine coupling kit according to manufacturer's instructions and procedures at 25 μg/ml. Unreacted moieties on the biosensor surface were blocked with ethanolamine. Modified carboxymethyl dextran surface in flowcell 2 and 4 was used as a reaction surface. Unmodified carboxymethyl dextran without goat anti-mouse IgG in flow cell 1 and 3 was used as the reference surface. For kinetic analysis, rate equations derived from the 1:1 Langmuir binding model were fitted simultaneously to association and dissociation phases of all eight injections (using global fit analysis) with the use of Biaevaluation 4.0.1 software. Purified antibodies or DVD-Ig proteins were diluted in HEPES-buffered saline for capture across goat anti-mouse IgG specific reaction surfaces. Antibodies or DVD-Ig proteins to be captured as a ligand (25 μg/ml) were injected over reaction matrices at a flow rate of 5 μl/minute. The association and dissociation rate constants, kₒₙ (M⁻¹s⁻¹) and koff (s⁻¹) were determined under a continuous flow rate of 25 μl/minute. Rate constants were derived by making kinetic binding measurements at different antigen concentrations ranging from 10-200 nM. The equilibrium dissociation constant (M) of the reaction between antibodies or DVD-Ig proteins and the target antigen was then calculated from the kinetic rate constants by the following formula: KD=koff/kₒₙ. Binding was recorded as a function of time and kinetic rate constants were calculated.

Recombinant Human IL-17 [4] = target: T2, Recombinant Human IL-17; experiment: SPR (Biacore)
Protocol: as §1

T1 sequence (P35225 35-146 limits assumed): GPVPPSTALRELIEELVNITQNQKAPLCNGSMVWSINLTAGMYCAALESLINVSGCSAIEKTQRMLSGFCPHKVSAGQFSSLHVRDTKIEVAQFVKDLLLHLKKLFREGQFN

N-Terminal VD IL13 Neutralization Assay IC50 (Recombinant Human IL-13 [1]): 0.112 nM
C-Terminal VD IL17 Neutralization Assay IC50 (Recombinant Human IL-17 [2]): 0.0069 nM
B1: DVD2152 (bispecific antibody)
VH: EVTLRESGPGLVKPTQTLTLTCTLYGFSLSTSDMGVDWIRQPPGKGLEWLAHIWWDDVKRYNPALKSRLTISKDTSKNQVVLKLTSVDPVDTATYYCARTVSSGYIYYAMDYWGQGTLVTVSSASTKGPSVFPLAPEVQLVQSGAEVKKPGSSVKVSCKASGYTFTDYEIHWVRQAPGQGLEWMGVNDPESGGTFYNQKFDGRVTLTADESTSTAYMELSSLRSEDTAVYYCTRYSKWDSFDGMDYWGQGTTVTVSS
VL: DIQMTQSPSSLSASVGDRVTISCRASQDIRNYLNWYQQKPGKAPKLLIFYTSKLHSGVPSRFSGSGSGTDYTLTISSLQPEDIATYYCQQGLTPPLTFGGGTKVEIKRTVAAPDIQMTQSPSSLSASVGDRVTITCRASSGIISYIDWFQQKPGKAPKRLIYATFDLASGVPSRFSGSGSGTDYTLTISSLQPEDFATYYCRQVGSYPETFGQGTKLEIKR

Kd (Recombinant Human IL-13 [3]): 0.029 nM
koff (Recombinant Human IL-13 [3]): 6.4e-05 s⁻¹
kon (Recombinant Human IL-13 [3]): 2.2e+06 M⁻¹ s⁻¹
Kd (Recombinant Human IL-17 [4]): < 0.0091 nM
koff (Recombinant Human IL-17 [4]): < 1e-06 s⁻¹
kon (Recombinant Human IL-17 [4]): 110000 M⁻¹ s⁻¹
N-Terminal VD IL13 Neutralization Assay IC50 (Recombinant Human IL-13 [1]): 0.029 nM
C-Terminal VD IL17 Neutralization Assay IC50 (Recombinant Human IL-17 [2]): 0.0551 nM
B2: DVD2196 (bispecific antibody)
VH: EVQLVQSGAEVKKPGASVKVSCKASGYTFTSYWMHWVRQAPGQGLEWIGNINPKGGSNIYNEKFQGRVTMTRDTSISTAYMELSRLRSDDTAVYYCARLDYFGDSFDLWGQGTTVTVSSASTKGPEVQLVQSGAEVKKPGESVKISCKASGGSFRSYGISWVRQAPGQGLEWMGGITHFFGITDYAQKFQGRVTITADESTTTAYMELSGLTSDDTAVYYCAREPNDFWNGYYDTHDFDSWGQGTTVTVSS
VL: DIQMTQSPSSLSASVGDRVTITCRASQGIRNYLNWYQQKPGKAPKLLIYYASNLEVGVPSRFSGSGSGTDYTLTISSLQPEDFATYYCQQDNRFPYTFGGGTKVEIKRTVAAPEIVLTQSPDFQSVTPKEKVTITCRASQNIGSELHWYQQKPDQSPKLLIKYASHSISGVPSRFSGSGSGTDFTLTINGLEAEDAATYYCHQSDTLPHTFGQGTKVDIKR
notes: DVD-Ig; also called DVD2196H; DVD2196L

C-Terminal VD IL13 Neutralization Assay IC50 (Recombinant Human IL-13 [1]): 0.526 nM
N-Terminal VD IL17 Neutralization Assay IC50 (Recombinant Human IL-17 [2]): 0.0179 nM
B3: DVD2151 (bispecific antibody)
VH: EVQLVQSGAEVKKPGSSVKVSCKASGYTFTDYEIHWVRQAPGQGLEWMGVNDPESGGTFYNQKFDGRVTLTADESTSTAYMELSSLRSEDTAVYYCTRYSKWDSFDGMDYWGQGTTVTVSSASTKGPEVTLRESGPGLVKPTQTLTLTCTLYGFSLSTSDMGVDWIRQPPGKGLEWLAHIWWDDVKRYNPALKSRLTISKDTSKNQVVLKLTSVDPVDTATYYCARTVSSGYIYYAMDYWGQGTLVTVSS
VL: DIQMTQSPSSLSASVGDRVTITCRASSGIISYIDWFQQKPGKAPKRLIYATFDLASGVPSRFSGSGSGTDYTLTISSLQPEDFATYYCRQVGSYPETFGQGTKLEIKRTVAAPSVFIFPPDIQMTQSPSSLSASVGDRVTISCRASQDIRNYLNWYQQKPGKAPKLLIFYTSKLHSGVPSRFSGSGSGTDYTLTISSLQPEDIATYYCQQGLTPPLTFGGGTKVEIKR

Kd (Recombinant Human IL-13 [3]): 0.066 nM
koff (Recombinant Human IL-13 [3]): 3.9e-05 s⁻¹
kon (Recombinant Human IL-13 [3]): 590000 M⁻¹ s⁻¹
Kd (Recombinant Human IL-17 [4]): 0.012 nM
koff (Recombinant Human IL-17 [4]): 2.2e-05 s⁻¹
kon (Recombinant Human IL-17 [4]): 1.9e+06 M⁻¹ s⁻¹
C-Terminal VD IL13 Neutralization Assay IC50 (Recombinant Human IL-13 [1]): 0.028 nM
N-Terminal VD IL17 Neutralization Assay IC50 (Recombinant Human IL-17 [2]): 0.014 nM
B4: DVD2193 (bispecific antibody)
VH: EVQLVQSGAEVKKPGSSVKVSCKASGGSFGGYGIGWVRQAPGQGLEWMGGITPFFGFADYAQKFQGRVTITADESTTTAYMELSGLTSDDTAVYYCARDPNEFWNGYYSTHDFDSWGQGTTVTVSSASTKGPEVQLVQSGAEVKKPGASVKVSCKASGYTFTSYWMHWVRQAPGQGLEWIGNINPKGGSNIYNEKFQGRVTMTRDTSISTAYMELSRLRSDDTAVYYCARLDYFGDSFDLWGQGTTVTVSS
VL: EIVLTQSPDFQSVTPKEKVTITCRASQDIGSELHWYQQKPDQPPKLLIKYASHSTSGVPSRFSGSGSGTDFTLTINGLEAEDAGTYYCHQTDSLPYTFGPGTKVDIKRTVAAPSVFIFPPDIQMTQSPSSLSASVGDRVTITCRASQGIRNYLNWYQQKPGKAPKLLIYYASNLEVGVPSRFSGSGSGTDYTLTISSLQPEDFATYYCQQDNRFPYTFGGGTKVEIKR
notes: DVD-Ig; also called DVD2193H; DVD2193L

Kd (Recombinant Human IL-13 [3]): 0.026 nM
koff (Recombinant Human IL-13 [3]): 3.4e-05 s⁻¹
kon (Recombinant Human IL-13 [3]): 1.3e+06 M⁻¹ s⁻¹
Kd (Recombinant Human IL-17 [4]): 0.019 nM
koff (Recombinant Human IL-17 [4]): 4.4e-05 s⁻¹
kon (Recombinant Human IL-17 [4]): 2.3e+06 M⁻¹ s⁻¹
C-Terminal VD IL13 Neutralization Assay IC50 (Recombinant Human IL-13 [1]): 0.088 nM
N-Terminal VD IL17 Neutralization Assay IC50 (Recombinant Human IL-17 [2]): 0.0102 nM
B5: DVD2199 (bispecific antibody)
VH: EVQLVQSGAEVKKPGESVKISCKASGGSFRSYGISWVRQAPGQGLEWMGGITHFFGITDYAQKFQGRVTITADESTTTAYMELSGLTSDDTAVYYCAREPNDFWNGYYDTHDFDSWGQGTTVTVSSASTKGPEVQLVQSGAEVKKPGASVKVSCKASGYTFTSYWMHWVRQAPGQGLEWIGNINPKGGSNIYNEKFQGRVTMTRDTSISTAYMELSRLRSDDTAVYYCARLDYFGDSFDLWGQGTTVTVSS
VL: B4 VL with D28N, P43S, T55I, G84A, T91S, S93T, Y96H, P100Q
notes: DVD-Ig; also called DVD2199H; DVD2199L

Kd (Recombinant Human IL-13 [3]): 0.014 nM
koff (Recombinant Human IL-13 [3]): 3.7e-05 s⁻¹
kon (Recombinant Human IL-13 [3]): 2.6e+06 M⁻¹ s⁻¹
Kd (Recombinant Human IL-17 [4]): 0.002 nM
koff (Recombinant Human IL-17 [4]): 4.8e-06 s⁻¹
kon (Recombinant Human IL-17 [4]): 2.4e+06 M⁻¹ s⁻¹
C-Terminal VD IL13 Neutralization Assay IC50 (Recombinant Human IL-13 [1]): 0.052 nM
N-Terminal VD IL17 Neutralization Assay IC50 (Recombinant Human IL-17 [2]): 0.0181 nM
B6: DVD2195 (bispecific antibody)
VH: EVQLVQSGAEVKKPGSSVKVSCKASGGSFGGYGIGWVRQAPGQGLEWMGGITPFFGFADYAQKFQGRVTITADESTTTAYMELSGLTSDDTAVYYCARDPNEFWNGYYSTHDFDSWGQGTTVTVSSASTKGPSVFPLAPEVQLVQSGAEVKKPGASVKVSCKASGYTFTSYWMHWVRQAPGQGLEWIGNINPKGGSNIYNEKFQGRVTMTRDTSISTAYMELSRLRSDDTAVYYCARLDYFGDSFDLWGQGTTVTVSS
VL: EIVLTQSPDFQSVTPKEKVTITCRASQDIGSELHWYQQKPDQPPKLLIKYASHSTSGVPSRFSGSGSGTDFTLTINGLEAEDAGTYYCHQTDSLPYTFGPGTKVDIKRTVAAPDIQMTQSPSSLSASVGDRVTITCRASQGIRNYLNWYQQKPGKAPKLLIYYASNLEVGVPSRFSGSGSGTDYTLTISSLQPEDFATYYCQQDNRFPYTFGGGTKVEIKR
notes: DVD-Ig; also called DVD2195H; DVD2195L

Kd (Recombinant Human IL-13 [3]): 0.14 nM
koff (Recombinant Human IL-13 [3]): 4.4e-05 s⁻¹
kon (Recombinant Human IL-13 [3]): 310000 M⁻¹ s⁻¹
Kd (Recombinant Human IL-17 [4]): 0.038 nM
koff (Recombinant Human IL-17 [4]): 6.2e-05 s⁻¹
kon (Recombinant Human IL-17 [4]): 1.6e+06 M⁻¹ s⁻¹
C-Terminal VD IL13 Neutralization Assay IC50 (Recombinant Human IL-13 [1]): 0.081 nM
N-Terminal VD IL17 Neutralization Assay IC50 (Recombinant Human IL-17 [2]): 0.005 nM
B7: DVD2197 (bispecific antibody)
VH: B5 VH
VL: B6 VL with D28N, P43S, T55I, G84A, T91S, S93T, Y96H, P100Q
notes: DVD-Ig; also called DVD2197H; DVD2197L

C-Terminal VD IL13 Neutralization Assay IC50 (Recombinant Human IL-13 [1]): 2.44 nM
N-Terminal VD IL17 Neutralization Assay IC50 (Recombinant Human IL-17 [2]): 0.0049 nM
B8: DVD2153 (bispecific antibody)
VH: EVQLVQSGAEVKKPGSSVKVSCKASGYTFTDYEIHWVRQAPGQGLEWMGVNDPESGGTFYNQKFDGRVTLTADESTSTAYMELSSLRSEDTAVYYCTRYSKWDSFDGMDYWGQGTTVTVSSASTKGPSVFPLAPEVTLRESGPGLVKPTQTLTLTCTLYGFSLSTSDMGVDWIRQPPGKGLEWLAHIWWDDVKRYNPALKSRLTISKDTSKNQVVLKLTSVDPVDTATYYCARTVSSGYIYYAMDYWGQGTLVTVSS
VL: DIQMTQSPSSLSASVGDRVTITCRASSGIISYIDWFQQKPGKAPKRLIYATFDLASGVPSRFSGSGSGTDYTLTISSLQPEDFATYYCRQVGSYPETFGQGTKLEIKRTVAAPDIQMTQSPSSLSASVGDRVTISCRASQDIRNYLNWYQQKPGKAPKLLIFYTSKLHSGVPSRFSGSGSGTDYTLTISSLQPEDIATYYCQQGLTPPLTFGGGTKVEIKR
